This assay addresses bacterially expressed wild-type HRAS (human, UniProt P01112 1-189). In words: ITC. In general terms: Isothermal titration calorimetry measures the heat released or taken up as one component is titrated into another.

Kd data for one molecule are collected here from publication doi:10.1101/2023.05.06.539669 (bioRxiv, 2023).

The term Kd denotes the equilibrium constant for the complex coming apart. Read a low Kd as a tighter complex.

Values joined by “and” are separate entries in the source; they are usually repeats but may differ in a detail not shown here. Equal values may be shown once. Where no end group is shown, it is not given here.

Chain of bacterially expressed wild-type HRAS (P01112 whole entry): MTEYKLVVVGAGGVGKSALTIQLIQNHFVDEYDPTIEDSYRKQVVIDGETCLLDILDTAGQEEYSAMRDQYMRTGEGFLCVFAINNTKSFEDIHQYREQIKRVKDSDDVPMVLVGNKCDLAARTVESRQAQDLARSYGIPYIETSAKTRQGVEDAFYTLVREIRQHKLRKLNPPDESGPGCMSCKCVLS

Take YRLEKQSEPNV-NH2 [S-016-1034 (CDRI-S-016-1034), 11-mer peptide derived from the RAS-Binding-Domain of mSIN1]: the Kd was 9.54 µM and 8.95 µM.
